This note sets out measurements from article PMC4522956 (2015).

For assay [1], the target named is T1, HIF-1β PASb labeled with FITC (human (cDNA library from the breast …, UniProt P27540 349-467, FITC (fluorescein isothiocyanate) label, sites not stated)). The experiment in a line: FP; PASb-3α with linoleic acid, at equilibrium.
In assay [2] the target is T1, HIF-1β PASb labeled with FITC. The experiment in a line: FP; PASb-3α with bacterial lipids, at equilibrium.
The target is the same in assay [3]. The experiment in a line: FP; at equilibrium.

T1 sequence (P27540 349-467): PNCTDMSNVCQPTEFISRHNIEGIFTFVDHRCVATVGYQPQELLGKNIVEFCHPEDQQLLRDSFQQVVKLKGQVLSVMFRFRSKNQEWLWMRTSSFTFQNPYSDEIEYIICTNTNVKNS

B1: C-terminal Per-Arnt-Sim (PASb) domain of human HIF-3α9 (domain or fragment)
chain: GAFLSRHSLDMKFTYCDDRIAEVAGYSPDDLIGCSAYEYIHALDSDAVSKSIHTLLSKGQAVTGQYRFLARSGGYLWTQTQATVVSGGRGPQSESIVCVHFLISQVEET
As for B1, the Kd (as a rule, the concentration at which binding is half-saturated) was 10 µM in assay [1] and 12 µM in assay [2].

B2: HIF-1α PASb (domain or fragment)
chain: not shown
As to B2, the dissociation constant Kd in assay [3] stood at 36 µM.
